Reference: patent publication US20240174720A1

What was measured:
[1] = biological target: Purified human IgG (injectable IVIG) (human); test: dynamic binding capacity at 10% breakthrough after 35 h in 0.5 M NaOH; ligand on agarose column; human IgG 2.5 mg/ml
[2] = biological target: Purified human IgG (injectable IVIG) (human); test: dynamic binding capacity at 10% breakthrough after 24 h in 0.5 M NaOH; ligand on agarose column; human IgG 2.5 mg/ml
[3] = biological target: Purified human IgG (injectable IVIG) (human); test: dynamic binding capacity at 10% breakthrough; ligand on agarose in 1 ml column; human IgG 2.5 mg/ml; 4 min residence time
[4] = biological target: Purified human IgG (injectable IVIG) (human); test: DBC after 0.5 M NaOH soaking relative to DBC before soaking; agarose column; human IgG

| DBC after 35 h soaking [1] | DBC after 24 h soaking [2] | DBC before NaOH soaking [3] | Percentage of remaining DBC [4] | Substance |
| --- | --- | --- | --- | --- |
| 49 mg/mL | 56 mg/mL | 64 mg/mL | 76.5% | Z domain with S41V/N52V mutations Ig-binding affinity ligand (designed binder) |
| 41 mg/mL | 52 mg/mL | 63 mg/mL | 65.1% | Z domain with N52V mutation Ig-binding affinity ligand (designed binder) |
| 44 mg/mL | 52 mg/mL | 62 mg/mL | 70.9% | Z domain with S41A mutation Ig-binding affinity ligand (designed binder) |
| 39 mg/mL | 47 mg/mL | 58 mg/mL | 67.2% | Z domain with N52L mutation Ig-binding affinity ligand (designed binder) |
| 53 mg/mL | 59 mg/mL | 65 mg/mL | 81.5% | Z domain with S41A/N52V mutations Ig-binding affinity ligand (designed binder) |
| 42 mg/mL | 50 mg/mL | 59 mg/mL | 71.2% | Z domain with S41A/N52L mutations Ig-binding affinity ligand (designed binder) |
| 43 mg/mL | 53 mg/mL | 65 mg/mL | 66.1% | Z domain with S41V mutation Ig-binding affinity ligand (designed binder) |
